Columns and labels:
[1] = target: cross-linked RlpA-Δ32·MltF2 complex (SPR chip) (P. aeruginosa PAO1) (UniProt Q9X6V6); test: SPR
[2] = target: RlpA-Δ32, fluorescently labeled (P. aeruginosa PAO1) (UniProt Q9X6V6); test: MST
[3] = target: RlpA-Δ32·MltF2 complex (MST) (P. aeruginosa PAO1) (UniProt Q9X6V6); test: MST
[4] = target: RlpA-Δ32 (P. aeruginosa PAO1) (UniProt Q9X6V6); test: SPR
[5] = target: RlpA-SPOR (P. aeruginosa PAO1) (UniProt Q9X6V6); test: SPR
[6] = target: RlpA-SPOR (P. aeruginosa PAO1) (UniProt Q9X6V6); test: ITC

Substance | Kd [1] | koff [1] | kon [1] | Kd [2] | Kd [3] | Kd [4] | koff [4] | kon [4] | Kd [5] | koff [5] | kon [5] | Kd [6] | stoichiometry N [6]
PBP1a (from UniProt Q07806 27-822) (enzyme) | 0.28 µM | 0.0048 s⁻¹ | 51700 M⁻¹ s⁻¹ | – | – | – | – | – | – | – | – | – | –
PBP1b (enzyme) | – | – | – | 0.016 µM | 0.057 µM | 0.055 µM | 0.0005 s⁻¹ | 9100 M⁻¹ s⁻¹ | – | – | – | – | –
SltB3 (enzyme) | – | – | – | 0.092 µM | 0.39 µM | 0.14 µM | 0.00079 s⁻¹ | 5500 M⁻¹ s⁻¹ | 2.14 µM | 0.00079 s⁻¹ | 370 M⁻¹ s⁻¹ | 0.079 µM | 1

Reference: paper PMC9712689
